The values below come from the supplement of paper PMC5998384.

For series [1], the system named is HeLa Kyoto. Put plainly: solubility change mitosis vs G1/S (difference of NP-40 vs SDS log2 ratios) (log2 ratio difference); higher = more soluble in mitosis.
In series [2] the test system is HeLa Kyoto. Put plainly: solubility in G1/S (NP-40 vs SDS abundance) (log2 ratio); higher = more soluble. The settings on record: cell cycle stage: G1/S.
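For solubility change mitosis vs G1/S (difference of NP-40 vs SDS log2 ratios) in this document: synchronized HeLa Kyoto cells (double thymidine block for G1/S, nocodazole release for mitosis), protein amounts in NP-40 versus SDS lysates quantified by mass spectrometry, three biological replicates.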
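For solubility in G1/S (NP-40 vs SDS abundance) in this document: HeLa Kyoto cells arrested at G1/S by double thymidine block, proteins quantified by TMT10plex mass spectrometry in mild NP-40 versus SDS extracts, three biological replicates.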

For the substance “MHPGGGPSRAERLELGLGRERPAKAIFLHRRPGEGGGRERCLRCGHVCVRRGPGPREAVPSGRPRPDTLTPPWVRQRAVTGTFCASWTPLRNRRAQRMATDMQRKRSSECLDGTLTPSDGQSMERAESPTPGMAQGMEPGAGQEGAMFVHARSYEDLTESEDGAASGDSHKEGTRGPPPLPTDMRQISQDFSELSTQLTGVARDLQEEMLPGSSEDWLEPPGAVGRPATEPPREGTTEGDEEDATEAWRLHQKHVFVLSEAGKPVYSRYGSEEALSSTMGVMVALVSFLEADKNAIRSIHADGYKVVFVRRSPLVLVAVARTRQSAQELAQELLYIYYQILSLLTGAQLSHIFQQKQNYDLRRLLSGSERITDNLLQLMARDPSFLMGAARCLPLAAAVRDTVSASLQQARARSLVFSILLARNQLVALVRRKDQFLHPIDLHLLFNLISSSSSFREGEAWTPVCLPKFNAAGFFHAHISYLEPDTDLCLLLVSTDREDFFAVSDCRRRFQERLRKRGAHLALREALRTPYYSVAQVGIPDLRHFLYKSKSSGLFTSPEIEAPYTSEEEQERLLGLYQYLHSRAHNASRPLKTIYYTGPNENLLAWVTGAFELYMCYSPLGTKASAVSAIHKLMRWIRKEEDRLFILTPLTY [MON1A]”, the “solubility change mitosis (log2)” value in the series with HeLa Kyoto [1] was -0.081. Also, the “solubility in G1/S (log2)” value with HeLa Kyoto [2] came to 0.0361.
Taken in the same sequence, the figures for MICALL2 were -0.0133 and 0.151.
For “MIEVVCNDRLGKKVRVKCNTDDTIGDLKKLIAAQTGTRWNKIVLKKWYTIFKDHVSLGDYEIHDGMNLELYYQ [UBL5]” the same measures were 0.566 and -1.06.
In the case of “MISAPDVVAFTKEEEYEEEPYNEPALPEEYSVPLFPFASQGANPWSKLSGAKFSRDFILISEFSEQVGPQPLLTIPNDTKVFGTFDLNYFSLRIMSVDYQASFVGHPPGSAYPKLNFVEDSKVVLGDSKEGAFAYVHHLTLYDLEARGFVRPFCMAYISADQHKIMQQFQELSAEFSRASECLKTGNRKAFAGELEKKLKDLDYTRTVLHTETEIQKKANDKGFYSSQAIEKANELASVEKSIIEHQDLLKQIRSYPHRKLKGHDLCPGEMEHIQDQASQASTTSNPDESADTDLYTCRPAYTPKLIKAKSTKCFDKKLKTLEELCDTEYFTQTLAQLSHIEHMFRGDLCYLLTSQIDRALLKQQHITNFLFEDFVEVDDRMVEKQESIPSKPSQDRPPSSSLEECPIPKVLISVGSYKSSVESVLIKMEQELGDEEYKEVEVTELSSFDPQENLDYLDMDMKGSISSGESIEVLGTEKSTSVLSKSDSQASLTVPLSPQVVRSKAVSHRTISEDSIEVLSTCPSEALIPDDFKASYPSAINEEESYPDGNEGAIRFQASISPPELGETEEGSIENTPSQIDSSCCIGKESDGQLVLPSTPAHTHSDEDGVVSSPPQRHRQKDQGFRVDFSVENANPSSRDNSCEGFPAYELDPSHLLASRDISKTSLDNYSDTTSYVSSVASTSSDRIPSAYPAGLSSDRHKKRAGQNALKFIRQYPFAHPAIYSLLSGRTLVVLGEDEAIVRKLVTALAIFVPSYGCYAKPVKHWASSPLHIMDFQKWKLIGLQRVASPAGAGTLHALSRYSRYTSILDLDNKTLRCPLYRGTLVPRLADHRTQIKRGSTYYLHVQSMLTQLCSKAFLYTFCHHLHLPTHDKETEELVASRQMSFLKLTLGLVNEDVRVVQYLAELLKLHYMQESPGTSHPMLRFDYVPSFLYKI [SMCR8]”, the “solubility change mitosis (log2)” value in the series on HeLa Kyoto [1] turned out to be 0.0252. In addition, the “solubility in G1/S (log2)” value in the series with HeLa Kyoto [2] was -0.0823.
Turning to “MKDVDNLKSIKEEWVCETGSDNQPLGNNQQSNCEYFVDSLFEEAQKVSSKCVSPAEQKKQVDVNIKLWKNGFTVNDDFRSYSDGASQQFLNSIKKGELPSELQGIFDKEEVDVKVEDKKNEICLSTKPVFQPFSGQGHRLGSATPKIVSKAKNIEVENKNNLSAVPLNNLEPITNIQIWLANGKRIVQKFNITHRVSHIKDFIEKYQGSQRSPPFSLATALPVLRLLDETLTLEEADLQNAVIIQRLQKTASFRELSEH [UBXN2A]”, the “solubility change mitosis (log2)” value in the series with HeLa Kyoto [1] was 0.0265. Further, the “solubility in G1/S (log2)” value in the series with HeLa Kyoto [2] amounted to 0.0566.
Take “MKFVYKEEHPFEKRRSEGEKIRKKYPDRVPVIVEKAPKARIGDLDKKKYLVPSDLTVGQFYFLIRKRIHLRAEDALFFFVNNVIPPTSATMGQLYQEHHEEDFFLYIAYSDESVYGL [GABARAP]”: in the series with HeLa Kyoto [1], the “solubility change mitosis (log2)” value was -0.0822. Also, the “solubility in G1/S (log2)” value in the series with HeLa Kyoto [2] amounted to 0.16.
For “MKLHYVAVLTLAILMFLTWLPESLSCNKALCASDVSKCLIQELCQCRPGEGNCSCCKECMLCLGALWDECCDCVGMCNPRNYSDTPPTSKSTVEELHEPIPSLFRALTEGDTQLNWNIVSFPVAEELSHHENLVSFLETVNQPHHQNVSVPSNNVHAPYSSDKEHMCTVVYFDDCMSIHQCKISCESMGASKYRWFHNACCECIGPECIDYGSKTVKCMNCMF [TWSG1]” the same measures were -0.383 and 0.0362.
For “MKRVNSCVKSDEHVLEELETEGERQLKSLLQHQLDTSVSIEECMSKKESFAPGTMYKPFGKEAAGTMTLSQFQTLHEKDQETASLRELGLNETEILIWKSHVSGEKKTKLRATPEAIQNRLQDIEERISERQRILCLPQRFAKSKQLTRREMEIEKSLFQGADRHSFLKALYYQDEPQKKNKGDPMNNLESFYQEMIMKKRLEEFQLMRGEPFASHSLVSATSVGDSGTAESPSLLQDKGKQAAQGKGPSLHVANVIDFSPEQCWTGPKKLTQPIEFVPEDEIQRNRLSEEEIRKIPMFSSYNPGEPNKVLYLKNLSPRVTERDLVSLFARFQEKKGPPIQFRMMTGRMRGQAFITFPNKEIAWQALHLVNGYKLHGKILVIEFGKNKKQRSNLQATSLISCATGSTTEISGS [RBM41]” the same measures were -0.0432 and -0.192.
On to “MLGTLRAMEGEDVEDDQLLQKLRASRRRFQRRMQRLIEKYNQPFEDTPVVQMATLTYETPQGLRIWGGRLIKERNEGEIQDSSMKPADRTDGSVQAAAWGPELPSHRTVLGADSKSGEVDATSDQEESVAWALAPAVPQSPLKNELRRKYLTQVDILLQGAEYFECAGNRAGRDVRVTPLPSLASPAVPAPGYCSRISRKSPGDPAKPASSPREWDPLHPSSTDMALVPRNDSLSLQETSSSSFLSSQPFEDDDICNVTISDLYAGMLHSMSRLLSTKPSSIISTKTFIMQNWNSRRRHRYKSRMNKTYCKGARRSQRSSKENFIPCSEPVKGTGALRDCKNVLDVSCRKTGLKLEKAFLEVNRPQIHKLDPSWKERKVTPSKYSSLIYFDSSATYNLDEENRFRTLKWLISPVKIVSRPTIRQGHGENRQREIEIRFDQLHREYCLSPRNQPRRMCLPDSWAMNMYRGGPASPGGLQGLETRRLSLPSSKAKAKSLSEAFENLGKRSLEAGRCLPKSDSSSSLPKTNPTHSATRPQQTSDLHVQGNSSGIFRKSVSPSKTLSVPDKEVPGHGRNRYDEIKEEFDKLHQKYCLKSPGQMTVPLCIGVSTDKASMEVRYQTEGFLGKLNPDPHFQGFQKLPSSPLGCRKSLLGSTAIEAPSSTCVARAITRDGTRDHQFPAKRPRLSEPQGSGRQGNSLGASDGVDNTVRPGDQGSSSQPNSEERGENTSYRMEEKSDFMLEKLETKSV [HJURP]”, for which the “solubility change mitosis (log2)” value in the series with HeLa Kyoto [1] was 0.197. Also, in the series on HeLa Kyoto [2], the “solubility in G1/S (log2)” value was -0.154.
Taken in the same sequence, the figures for “MLLGLAAMELKVWVDGIQRVVCGVSEQTTCQEVVIALAQAIGQTGRFVLVQRLREKERQLLPQECPVGAQATCGQFASDVQFVLRRTGPSLAGRPSSDSCPPPERCLIRASLPVKPRAALGCEPRKTLTPEPAPSLSRPGPAAPVTPTPGCCTDLRGLELRVQRNAEELGHEAFWEQELRREQAREREGQARLQALSAATAEHAARLQALDAQARALEAELQLAAEAPGPPSPMASATERLHQDLAVQERQSAEVQGSLALVSRALEAAERALQAQAQELEELNRELRQCNLQQFIQQTGAALPPPPRPDRGPPGTQGPLPPAREESLLGAPSESHAGAQPRPRGGPHDAELLEVAAAPAPEWCPLAAQPQAL [RASSF7]” were 0.0497 and 0.299.
